# Measured values: article PMC2139889
# Biological target: GPI-anchored urokinase receptor (uPAR) on U937 cells (human (endogenous in U937)) (UniProt Q03405)
# Test: radioligand binding
# UniProt Q03405, sequence (Q03405 23-305): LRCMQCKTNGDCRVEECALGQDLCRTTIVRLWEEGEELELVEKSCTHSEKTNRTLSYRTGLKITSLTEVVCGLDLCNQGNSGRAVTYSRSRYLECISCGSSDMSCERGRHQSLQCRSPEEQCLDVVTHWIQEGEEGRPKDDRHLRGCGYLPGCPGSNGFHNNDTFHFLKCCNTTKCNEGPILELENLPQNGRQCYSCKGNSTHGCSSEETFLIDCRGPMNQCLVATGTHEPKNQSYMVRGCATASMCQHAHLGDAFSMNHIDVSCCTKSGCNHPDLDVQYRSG
row,Substance,IC50
1,human urinary uPA (enzyme),0.4 nM
2,histidine-tagged pro-uPA with Ser138 replaced by Glu (enzyme),0.4 nM
3,histidine-tagged wild-type pro-uPA (enzyme),0.4 nM
4,histidine-tagged pro-uPA with Ser138 and Ser303 replaced by Glu (enzyme),0.4 nM
